# From the RNAGym collection of RNA variant scans (doi:10.1093/molbev/msab373)
# B1: Azoarcus group I ribozyme (parent)
# chain: GUGCCUUGCGCCGGGAAACCACGCAAGGGAUGGUGUCAAAUUCGGCGAAACCUAAGCGCCCGCCCGGGCGUAUGGCAACGCCGAGCCAAGCUUCGGCGCCUGCGCCGAUGAAGGUGUAGAGACUAGACGGCACCCACCUAAGGCAAACGCUAUGGUGAAGGCAUAGUCCAGGGAGUGGCGAAAGUCACACAAACCGG
# Variants of: B1
# Experiment: reverse-splicing fitness (ratio to wild type); higher = more active; in vitro selection; Mg2+ level not given
# Summary of the method: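 An in vitro group I ribozyme library with randomized positions was T7-transcribed and gel-purified. In triplicate, 10 pmol RNA in EPPS pH 7.5 was reacted with 50 pmoles of a 30-nt RNA substrate for 1 h at 37 °C across several added MgCl2 levels (1–48 mM), then stopped with EDTA. Products were reverse transcribed from a substrate-complementary primer, PCR-amplified and sequenced (HiSeq 4000). Fitness is a variant's read proportion after selection over that before, normalised to wild type.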
row,Variant,reverse-splicing fitness
1,C82G A111C A120U A145U C150A C169U U176C,0.00353
2,C82G A111C A120U A145U C150A C169U U176G,0.00243
3,C82G A111C A120U A145U C169G U176C,0.00239
4,C82G A111C A120U A145U C169G U176G,0.00162
5,C82G A111C A120U A145U C169G U176A,0.00269
6,C82G A111C A120U A145C C150U,0.0115
7,C82G A111C A120U A145G C150G C169A U176G,0.00544
8,C82G A111C A120U A145G C150G C169A U176A,0.0121
9,C82G A111C A120U A145G C150G C169A U176C,0.00861
10,C82G A111C A120U A145C C150U C169U U176A,0.00337
11,C82G A111C A120U A145C C150U C169U U176C,0.00256
12,C82G A111C A120U A145C C150U C169U U176G,0.00249
13,C82G A111C A120U A145C C169G,0.00323
14,C82G A111C A120U A145C C169A,0.00204
15,C82G A111C A120U A145C C169U,0.00341
16,C82G A111C A120U A145C C169G U176A,0.00322
17,C82G A111C A120U A145C C169G U176C,0.00339
18,C82G A111C A120U A145C C169G U176G,0.00197
19,C82G A111C A120U A145U C150U C169U U176C,0.00311
20,C82G A111C A120U A145U C150U C169U U176A,0.0031
21,C82G A111C A120U A145U C150U C169U U176G,0.00235

row,Variant,reverse-splicing fitness
1,C82G A111C A120U A145U C150G C169A,0.00457
2,C82G A111C A120U A145U C150G C169U,0.00326
3,C82G A111C A120U A145U C150G C169G,0.00414
4,C82G A111C A120U A145G C150U C169U U176A,0.00549
5,C82G A111C A120U A145G C150U C169U U176G,0.00262
6,C82G A111C A120U A145G C150U C169U U176C,0.00492
7,C82G A111C A120U A145U C169A,0.00231
8,C82G A111C A120U A145U C169G,0.00373
9,C82G A111C A120U A145U C169U,0.00412
10,C82G A111C A120U C150A C169A U176C,0.00453
11,C82G A111C A120U C150A C169A U176G,0.00289
12,C82G A111C A120U C150A C169A U176A,0.00668
13,C82G A111C A120U A145G C150U U176C,0.0162
14,C82G A111C A120U A145G C150U U176A,0.0115
15,C82G A111C A120U A145G C150U U176G,0.00399
16,C82G A111C A120U A145G C169A,0.00335
17,C82G A111C A120U A145G C169G,0.00473
18,C82G A111C A120U A145G C169U,0.00527
19,C82G A111C A120U A145U C150U U176C,0.013
20,C82G A111C A120U A145U C150U U176A,0.00941
21,C82G A111C A120U A145U C150U U176G,0.00386

row,Variant,reverse-splicing fitness
1,C82G A111C A120U A145U C150A C169A U176C,0.00267
2,C82G A111C A120U A145U C150A C169A U176A,0.00336
3,C82G A111C A120U A145U C150A C169A U176G,0.00195
4,C82G A111C A120U A145U C150U,0.0307
5,C82G A111C A120U A145U C150G,0.00826
6,C82G A111C A120U A145U C150A,0.00799
7,C82G A111C A120U A145G C169U U176C,0.00468
8,C82G A111C A120U A145G C169U U176G,0.0022
9,C82G A111C A120U A145G C169U U176A,0.00525
10,C82G A111C A120U A145U C150G C169A U176C,0.00308
11,C82G A111C A120U A145U C150G C169A U176A,0.0036
12,C82G A111C A120U A145U C150G C169A U176G,0.00276
13,C82G A111C A120U A145U C150A C169G U176G,0.00223
14,C82G A111C A120U A145U C150A C169G U176C,0.00248
15,C82G A111C A120U A145U C150A C169G U176A,0.00297
16,C82G A111C A120U A145G C150A C169U U176C,0.00449
17,C82G A111C A120U A145G C150A C169U U176G,0.00259
18,C82G A111C A120U A145G C150A C169U U176A,0.00632
19,C82G A111C A120U A145U C150U C169U,0.00397
20,C82G A111C A120U A145U C150U C169G,0.00403
21,C82G A111C A120U A145U C150U C169A,0.00298

row,Variant,reverse-splicing fitness
1,C82G A111C A120U A145G C150A U176C,0.0086
2,C82G A111C A120U A145G C150A U176G,0.00353
3,C82G A111C A120U A145G C150A U176A,0.00773
4,C82G A111C A120U A145U U176A,0.0115
5,C82G A111C A120U A145U U176G,0.00533
6,C82G A111C A120U A145U U176C,0.0197
7,C82G A111C A120U A145G C150A C169A U176C,0.00453
8,C82G A111C A120U A145G C150A C169A U176G,0.0032
9,C82G A111C A120U A145G C150A C169A U176A,0.00791
10,C82G A111C A120U A145G C169A U176G,0.00218
11,C82G A111C A120U A145G C169A U176A,0.00424
12,C82G A111C A120U A145G C169A U176C,0.00311
13,C82G A111C A120U A145C C150U C169G,0.00299
14,C82G A111C A120U A145C C150U C169U,0.003
15,C82G A111C A120U A145C C150U C169A,0.00304
16,C82G A111C A120U C150A,0.00807
17,C82G A111C A120U A145G C169G U176A,0.00387
18,C82G A111C A120U A145G C169G U176C,0.00363
19,C82G A111C A120U A145G C169G U176G,0.00194
20,C82G A111C A120U C150A C169G U176C,0.00487
21,C82G A111C A120U C150A C169G U176A,0.00466
